Experimental data as given in the array DNA melting data of Ke et al..

Test: melting temperature; melt of duplexes
Settings: sodium 0.0675 M; strand 1 µM

| Substance | Tm |
| --- | --- |
| CGACGTGCATCATGTGCTG+CAGCACATTCAGCACGTCG ((((((((...((((((((+))))))))...)))))))) | 47.8 °C |
| CGACGTGCATCATGTGCTG+CAGCACATTCCGCACGTCG ((((((((...((((((((+))))))))...)))))))) | 46.6 °C |
| CGACGTGCATCATGTGCTG+CAGCACATTGGGCACGTCG ((((((((...((((((((+))))))))...)))))))) | 50 °C |
| CGACGTGCATCATGTGCTG+CAGCACATTTTGCACGTCG (((((((((..((((((((+))))))))..))))))))) | 50.7 °C |
| CGACGTGCATGATGTGCTG+CAGCACATAATGCACGTCG ((((((((((.((((((((+)))))))).)))))))))) | 56 °C |
| CGACGTGCATGATGTGCTG+CAGCACATAGCGCACGTCG ((((((((...((((((((+))))))))...)))))))) | 47.4 °C |
| CGACGTGCATGATGTGCTG+CAGCACATAGTGCACGTCG (((((((((..((((((((+))))))))..))))))))) | 49.6 °C |
| CGACGTGCATGATGTGCTG+CAGCACATATGGCACGTCG ((((((((...((((((((+))))))))...)))))))) | 49.7 °C |
| CGACGTGCATGATGTGCTG+CAGCACATATTGCACGTCG (((((((((..((((((((+))))))))..))))))))) | 52.3 °C |
| CGACGTGCATGATGTGCTG+CAGCACATCAAGCACGTCG ((((((((.((((((((((+)))))))))).)))))))) | 56.5 °C |
| CGACGTGCATGATGTGCTG+CAGCACATCGAGCACGTCG ((((((((..(((((((((+)))))))))..)))))))) | 56.1 °C |
| CGACGTGCATGATGTGCTG+CAGCACATCTTGCACGTCG (((((((((.(((((((((+))))))))).))))))))) | 58.3 °C |
| CGACGTGCATGATGTGCTG+CAGCACATGACGCACGTCG ((((((((.(.((((((((+)))))))).).)))))))) | 46.2 °C |
| CGACGTGCATGATGTGCTG+CAGCACATGAGGCACGTCG ((((((((.(.((((((((+)))))))).).)))))))) | 52.6 °C |
| CGACGTGCATGATGTGCTG+CAGCACATGATGCACGTCG ((((((((((.((((((((+)))))))).)))))))))) | 56.8 °C |
| CGACGTGCATGATGTGCTG+CAGCACATGCGGCACGTCG ((((((((...((((((((+))))))))...)))))))) | 48 °C |
| CGACGTGCATGATGTGCTG+CAGCACATGGGGCACGTCG ((((((((...((((((((+))))))))...)))))))) | 50 °C |
| CGACGTGCATGATGTGCTG+CAGCACATGTTGCACGTCG (((((((((..((((((((+))))))))..))))))))) | 52.2 °C |

| Substance | Tm |
| --- | --- |
| CGACGTGCATGATGTGCTG+CAGCACATTACGCACGTCG ((((((((.(.((((((((+)))))))).).)))))))) | 50.6 °C |
| CGACGTGCATGATGTGCTG+CAGCACATTAGGCACGTCG ((((((((.(.((((((((+)))))))).).)))))))) | 54 °C |
| CGACGTGCATGATGTGCTG+CAGCACATTCAGCACGTCG ((((((((...((((((((+))))))))...)))))))) | 51.1 °C |
| CGACGTGCATGATGTGCTG+CAGCACATTCGGCACGTCG ((((((((...((((((((+))))))))...)))))))) | 50.3 °C |
| CGACGTGCATGATGTGCTG+CAGCACATTGCGCACGTCG ((((((((...((((((((+))))))))...)))))))) | 49.1 °C |
| CGACGTGCATGATGTGCTG+CAGCACATTGTGCACGTCG (((((((((..((((((((+))))))))..))))))))) | 53.2 °C |
| CGACGTGCATGATGTGCTG+CAGCACATTTAGCACGTCG ((((((((...((((((((+))))))))...)))))))) | 49.8 °C |
| CGACGTGCATGATGTGCTG+CAGCACATTTCGCACGTCG ((((((((...((((((((+))))))))...)))))))) | 48.7 °C |
| CGACGTGCATTATGTGCTG+CAGCACATAACGCACGTCG ((((((((.((((((((((+)))))))))).)))))))) | 53.8 °C |
| CGACGTGCATTATGTGCTG+CAGCACATAATGCACGTCG (((((((((((((((((((+))))))))))))))))))) | 60.7 °C |
| CGACGTGCATTATGTGCTG+CAGCACATACTGCACGTCG (((((((((.(((((((((+))))))))).))))))))) | 53.8 °C |
| CGACGTGCATTATGTGCTG+CAGCACATAGCGCACGTCG ((((((((..(((((((((+)))))))))..)))))))) | 49.4 °C |
| CGACGTGCATTATGTGCTG+CAGCACATAGGGCACGTCG ((((((((..(((((((((+)))))))))..)))))))) | 52 °C |
| CGACGTGCATTATGTGCTG+CAGCACATATTGCACGTCG (((((((((.(((((((((+))))))))).))))))))) | 54.5 °C |
| CGACGTGCATTATGTGCTG+CAGCACATCAAGCACGTCG ((((((((.(.((((((((+)))))))).).)))))))) | 48.1 °C |
| CGACGTGCATTATGTGCTG+CAGCACATCCCGCACGTCG ((((((((...((((((((+))))))))...)))))))) | 46.1 °C |
| CGACGTGCATTATGTGCTG+CAGCACATCGGGCACGTCG ((((((((...((((((((+))))))))...)))))))) | 47 °C |
| CGACGTGCATTATGTGCTG+CAGCACATCTCGCACGTCG ((((((((...((((((((+))))))))...)))))))) | 47.1 °C |
